According to US20110160280:
Substitutions are numbered along the chain they refer to.

Experiments:
[1] = tested on: T1, WDHD1 S374A immunoprecipitant
T1 sequence: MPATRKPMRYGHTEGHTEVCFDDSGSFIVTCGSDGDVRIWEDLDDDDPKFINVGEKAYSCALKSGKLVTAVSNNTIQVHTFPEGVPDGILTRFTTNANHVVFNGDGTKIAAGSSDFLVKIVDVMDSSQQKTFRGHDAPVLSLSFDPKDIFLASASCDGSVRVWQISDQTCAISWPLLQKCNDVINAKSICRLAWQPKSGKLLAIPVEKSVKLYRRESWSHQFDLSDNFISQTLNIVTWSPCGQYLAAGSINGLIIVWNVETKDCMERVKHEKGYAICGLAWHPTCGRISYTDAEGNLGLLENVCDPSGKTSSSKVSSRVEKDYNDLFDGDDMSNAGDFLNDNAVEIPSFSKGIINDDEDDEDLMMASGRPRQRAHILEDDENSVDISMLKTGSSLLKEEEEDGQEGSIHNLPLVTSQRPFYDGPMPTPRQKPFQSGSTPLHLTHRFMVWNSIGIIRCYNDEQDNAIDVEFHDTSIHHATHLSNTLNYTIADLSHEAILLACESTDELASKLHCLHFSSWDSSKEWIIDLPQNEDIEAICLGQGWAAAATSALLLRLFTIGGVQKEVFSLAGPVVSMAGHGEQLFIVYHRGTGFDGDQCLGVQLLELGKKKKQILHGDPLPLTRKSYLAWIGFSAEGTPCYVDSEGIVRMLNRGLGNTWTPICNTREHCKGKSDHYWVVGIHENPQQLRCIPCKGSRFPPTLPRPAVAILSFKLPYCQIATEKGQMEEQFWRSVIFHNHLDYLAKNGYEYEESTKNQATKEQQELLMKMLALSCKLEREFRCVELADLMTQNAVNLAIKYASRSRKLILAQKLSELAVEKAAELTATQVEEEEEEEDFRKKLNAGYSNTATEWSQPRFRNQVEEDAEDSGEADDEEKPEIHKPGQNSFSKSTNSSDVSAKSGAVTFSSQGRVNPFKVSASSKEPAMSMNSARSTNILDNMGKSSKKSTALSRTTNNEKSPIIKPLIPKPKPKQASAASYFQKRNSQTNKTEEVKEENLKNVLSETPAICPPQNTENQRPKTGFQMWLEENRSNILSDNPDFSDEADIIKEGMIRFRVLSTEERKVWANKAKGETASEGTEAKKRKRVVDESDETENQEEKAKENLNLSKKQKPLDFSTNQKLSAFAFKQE

[2] = tested on: T2, WDHD1 immunoprecipitant, wild type (c-Myc-tagged WDHD1, pcDNA3.1/myc-His-WDHD1)
T2 sequence: T1 sequence with A374S

[3] = biological target: active recombinant EGFR (Millipore) (UniProt P00533)
[4] = tested on: active recombinant MET (Millipore)
[5] = biological target: GST-tagged partial EGFR fragment #3 (codons 1046-1186) (UniProt P00533)

Sequence of active recombinant EPHA7 (Carnabioscience) (chain, as listed by the source): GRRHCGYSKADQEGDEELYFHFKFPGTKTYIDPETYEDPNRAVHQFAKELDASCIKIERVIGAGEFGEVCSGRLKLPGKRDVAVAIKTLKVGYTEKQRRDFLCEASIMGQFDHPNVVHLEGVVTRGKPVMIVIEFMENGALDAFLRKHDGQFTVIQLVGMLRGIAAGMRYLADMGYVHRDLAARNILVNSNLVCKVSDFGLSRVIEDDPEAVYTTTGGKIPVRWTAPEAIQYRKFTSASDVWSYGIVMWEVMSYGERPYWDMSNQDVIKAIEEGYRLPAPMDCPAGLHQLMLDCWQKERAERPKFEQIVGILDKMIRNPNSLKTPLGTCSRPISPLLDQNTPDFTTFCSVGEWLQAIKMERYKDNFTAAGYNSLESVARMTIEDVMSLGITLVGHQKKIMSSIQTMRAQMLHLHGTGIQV
Sequence of active recombinant MET (Millipore) (chain, as listed by the source): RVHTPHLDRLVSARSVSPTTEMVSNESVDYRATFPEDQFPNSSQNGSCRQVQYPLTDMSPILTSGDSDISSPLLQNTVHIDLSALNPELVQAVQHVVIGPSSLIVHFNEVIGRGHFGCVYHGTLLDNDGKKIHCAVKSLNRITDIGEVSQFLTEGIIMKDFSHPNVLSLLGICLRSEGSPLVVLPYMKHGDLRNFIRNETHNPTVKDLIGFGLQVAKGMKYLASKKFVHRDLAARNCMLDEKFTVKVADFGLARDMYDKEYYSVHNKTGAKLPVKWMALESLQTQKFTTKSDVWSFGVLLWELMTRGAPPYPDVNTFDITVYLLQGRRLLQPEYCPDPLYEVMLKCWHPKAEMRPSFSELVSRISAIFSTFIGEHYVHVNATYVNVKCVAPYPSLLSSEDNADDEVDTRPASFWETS

Substance | in vitro kinase assay, immunoblot with PAS antibody [1] | in vitro kinase assay, immunoblot with PAS antibody [2] | in vitro kinase assay (phosphorylation of EGFR) [3] | in vitro kinase assay (level of EPHA7 phosphorylation) [4] | in vitro kinase assay (phosphorylation of MET) [4] | in vitro kinase assay (phosphorylation of partial EGFR fragment) [5]
recombinant human AKT1 (rhAKT1; Invitrogen) | clearly indicated the reduced levels of WDHD1 phosphorylation in cells transfected with S374A mutant | proved the direct phosphorylation of WDHD1 by AKT |  |  |  | 
active recombinant EPHA7 (Carnabioscience) |  |  | EPHA7 could directly phosphorylate EGFR under the existence of EGFR kinase inhibitor that had diminished autophosphorylation of EGFR | the level of EPHA7 phosphorylation was markedly elevated when MET was co-incubated in the presence MET kinase inhibitor | EPHA7 could directly phosphorylate MET | phosphorylated tyrosine residues on cytoplasmic EGFR could be present in COOH-terminal portion (codons 1046-1186)
